Assay: label from the status in PepcDB records

Sequence	protein production
MNLRLAAALCAALSLCAVLAVPANFPALGGDARLTLAVFALATCAWIGTPIDDTYIALGAGLALTATGVISSDTLFGTLGEDTVWLLICAFVLAAAVARTGLAGRAAAFLVGGARTVRQLVHLTTAALVVTAFAMPATSGRAALALPVFLALAKVLADRKRLVVMLALLFPTVILLSAVATLIGAGAHLITVSVLWEATGDRIGFTQWLLLGLPLAVASSHLAAETVLLTTTRRADRAGPVRITAEEIQRHSESPVTGPWTQAEKRCALLLATVVALWCSEPLHRVSPAVVALIGAVVASSPALGTVRLKDALKTVPWSLLLFMAATMAMGVALADSGAAGWLVSGLPADVAPAVFLGVVVAVSTAAHLVLQSRSARSSVLVPLVIAAAVGAGVNPVAAALASTAAAGFCHTLPASAKPVTLFSDVPGVPTYTPRDLLRLSAVLAPLTALLVLFFAAAVWPLLGVPVTR	failed
MNLYFRLFWLLFWRTRHCRKIDFLGTSRITYRALPSDCDINFHLTNSRYPAFMDLARTYMLAEMGLLKRFLKLKWMPIVNAAEFTYIRDIKPLKKFEIETKVVGWDEKYFYIEQRFISERGLHCIVHVRGVFVCKGKQIPLEVLVKEAGYTAPAPELPPEVVKWKAFLQLKKERNL	failed
MNMKFTKILVQIAALYVFYMVGTWVQEMLNIPIPGSLIGMFLLLVLLSLKVLPVKWFDLGAETLVAIMPFLLIPPTLGLMNYGAFFMSKGISLFITVVASTFLIIIVAGHTGQYLANRKERESR	failed
MNMLIDISTEILMSLLFFYLFYRIMVKGTNGVIEILVEAMMFSMFVGLILYFQTRITFTTASMAVDMPMAIMGGAVAWAYFTRNSSMTTSRKSAFISLLISNEVAMAYFLTIITYPNIISHGVFYTLVHSVSSYLFIASMEIEMILSLLFLEKDSIKKIVFSGVVFSGLFNPFFMPQSNFSLYGTIYFTAVMVFFMAILFEIIAVKFDTMNFGKIVMITLFFGLMGFSAAGLFASIVFGSLITLLLFDISMMAQMAFYFYFLFRNTEIRGRPGWSYNRYSMFYVLLFSFAAEWLASASIISVVNGVNGVVPFLSNFGVGVYSGIVPAILNAIFIFGSVTNSYVFLIIMGVEMASLVIVRIGRLRWKEKNGISHSP	failed
MNMLVINGTPRKHGRTRIAASYIAALYHTDLIDLSEFVLPVFNGEAEQSELLKVQELKQRVTKADAIVLLSPEYHSGMSGALKNALDFLSSEQFKYKPVALLAVAGGGKGGINALNNMRTVMRGVYANVIPKQLVLDPVHIDVENATVAENIKESIKELVEELSMFAKAGNPGV	not failed
MNMNHYRPVILADQRVVSDFELDPLTRKISIKILQGHEQGNKGMVDTLRQNLQQRLGVPVEIPLALMNHLVKLVRDGNEVITATLAAGNDINEDGKAASYQVIDAEPGDHTGVQVGLAIDIGTTTVVVYLVNMVNGDIIAKASDYNGQIKLGDDILSRIMAAREEKGLQELQALIVNTLNALIQQLCLEAELKPQAITGVCIGANTTMVHLCLGLDPGSICRAPYRPAVNNAGIFCAGEIGLAVHPLAPTYCLPSIGSYIGGDVLAGILVSGMHKQEEVALLADIGTNGEFILGNQEWLVGCAGAAGPALEGGVTEWGIRAEQGAVDQVSIDSEHHVGYTTIDNAPARGICGSGLIDSLAELFLNGLINRAARFTDGRERFTIVPADESATGKEIFISQKDINSLMRTKGAVNAALEVLMESVGCQWEEIAKFYAAGAFGQYLPIESAVTIGLYPDLPREQMLRLGNSSGEGARQVLLSNSKRQEIEEIAGKITYFEMNASSSFMDKYGGSRFLPHTNMDLFPSVQEKLAVRQRSRC	failed
MNMNITYISIYKTSLPVLVSLLMEYLIGFTDTAYLGRVGETELAASAIAGTYYMIIYMIGFGFSIGAQILIAQYNGNQQYKEAGKILSQGILFLLIIAVIVILFSSIISPIILKSIIDSESVLQAVLQYLDWRIYGFFFSFTIIMFRAFYIGIIHTSALMLNSITMVAINVILNYILIFGALGIPVLGISGAAIASVISEAVAVIHFIIYTQKNVSSCKYGLKRRITIDCTILKKILSISIWMMLQHGLVFGSWFVFFITMEHFGERSLAITNIVRNISSFLFLFVQAFASVVSSLVGNLIGENKGNSILYVCKKVIFLCYMTILPIMVLFLFFPSSTLRIYSDNTVLVFEAIPTLKVMLTSYLIAVPTFVFFSAVSGIGHAVASLLIAFISLVVYIVYVETISHFSSSVPLLWTSEHIYFSCVFILSLYHIHHSWMSFINQDKKLTTNIS	failed
MNNHQTPQATSPLAAWLCYLEHLHSQPIELGLERVKQVAERLDLLKPAPKIFTVAGTNGKGTTCCTLEAILLAAGLRVGVYSSPHLLRYTERVRIQGQELSEAEHSHSFAQIEAGRGDISLTYFEFGTLSALQLFKQAKLDVVILEVGLGGRLDATNIVDSDVAAITSIALDHTDWLGYDRESIGREKAGVFRGGKPAVVGEPDMPQSIADVAAELGAQLYRRDVAWKFSQQEPFDQQEPVDQQINGWHWQCGERQLTGLPVPNVPLANAATALAVLHYSELPLSDEAIRQGLQAASLPGRFQVVSEQPLLILDVAHNPHAARYLVNRLAQVINPVNASKQGKVRAVVGMLSDKDIAGTLACLSERVDEWYCAPLEGPRGASAGQLAEHLVSARQFSDVETAWRQAMQDADTQDVVIVCGSFHTVAHVMAALHL	not failed
MNNINTIIQREYMIRVRKKSFLVMTILMPILFVGLVSLPIVLAQLGGDMKTIAIADRTGEYEQLFKENDEFRFVHAEKTAEEYRKMGADKSGIDAVLEIRQDLLEDPNAVAIYGYKQLPASVSNHISRILSDYLSDKKIASYNIPDIKQILADSKIELSVHTYKWSEDGTNERTSGELASGISMMMMVVIFFLIMTLAAMVQAGVLEEKKNRIMEVMVSSTRPFNLMMGKIIGIGLVGLTQLICWGVLTVLLLTVAQIAFLGNLYSPEALSRMQASDITGMASSMNAEDFAEMKEVMNIIGGINFGELFVMFLIFFIGGYLLYSSIFAVIGSMVSNDEDTSQFMMPVMILLMFGFYAAYGSMNNPEGSLAFWCSLIPFTSPLVMMVRLPYDVPLWQELLSIGLLYGCFVLMTWIGAKIYRVGVLMYGKKPSIKEIIRWINYK	failed
MNNIRQLTKDEYPKAIELSWQVFTITGKEDFNNEGLEFFKSFIYNKKCINEIIFYGSFDNEALTGILGIKSNGKHISLFFIKPEYHRHGLGKKLFHYASTLHPSIETTVNSSTYAIPFYRSLGFAVVGEKQNYHGLCSTPMRRYHAVFVQKNKYTLRTWQTEDAHSLVQELNNKKIWDNCRNVFPHPYRLEHAETFIDLIQKKEGIHDFCIEVNGKAVGNIGFTPGTDVECFNAEVGYVIGEKYWNQGIVTDALQEAIYHYFTYTNTIRIFALVFEHNLPSMRVLEKAGFNKVGIMTKSIFKNGHFTNAHLFELLKNVLEHHHHHH	failed
MNNISSNIKKVLFIFLVIFFVTISYITYFELIVSPKIVNNTDNKRLWAKRNEVLRGTIYDRNKKALTKSERVNTLTQKREYTGGAMFSHVLGYVNPQYGLTGLEAKYDQYLMGADDQPINQYLMELIKNKGKVSPEDKRGEDVVTTLDYNIQQQAYNLLGDNKGSVVVLNPKTGEILAMVSKPSYDPNDDALKASWAALNSNPDRPLLNRAVSGLYPPGSTFKTVTAISALENISGIQNETFNDPGQLVFNSTESLRDFGGESFGDIGFKHAYVVSSNVVFGKIGLQLGNNNLRQTAESFYFNKNIPCDGIVIDKSKFPTLKSYEKGNMAQSAIGQASVLATPIQMALVASTVANDGVMMKPHVVNEILSPNGDKIKSIEPESIGNIVSKENAATMKDFMRNVVEDGTGVNAAVEGIQVAGKTGTADHKVNGKDATPHSWFIGFAPYDNPQVAIAVIVEDGGQGGKAAAGIASKVIQTALQK	failed
MNNKQLDFTEGSITKKMVVFSWPIFLSNLLQTSYQITDSLWVGNLLGASALGALSISATVVFMVLSFIIGLNGATLTVLSQRQGAKDEAGLKASLNAFVFVLGLLAILLGLIGYFSASSILQLLGTPEEILPLAESYLKINFIGILFLFGYNFIGTVLRAMGDSRSPVRFIFIAVILNIILDPLMIAGFNLGIDGAAYATIVSQGTAFIYGLIYSVRKAGVPFQIPYVPEKRYFFVLFKLGLPAGLSMITISAGVTAILSVVTSFGEEAVAGFGAAQRLDSLIMLPALTLGSAVNTIAGQNIGANKWERVRATAKQGVMLIIAVTLIIGLITFIGAQFFIRLFVRDEATVAFGAMYIQTIAFFYPFLGINFVLNGIVRASGAMFPVLLLNIISFWILRYPLTYWMSDLFGERGIALGMGFAFVVSSLIATGYYFLGNWRKVGEELAQKTGHSKV	failed
MNNLFAAPTPEEHAALLQEIGPLPLSGQAWPDWVRILAWIVLAVIGVQIVTTAIGLPPGQVNPVLAGTIILCFLGLALVSWHMQISVTRIDESGLRQTWITRREVAWQDIQFAKFVPLLFSKRLVVFTRHGRPIVFQGGTRDLQVAFAKISLLYRRKR	failed
MNNPDLPYRQALECLSQKQYNFTEVRRLLTEAFSAGHPAAAFELAKHLMDADSPYQDREQGMEMLRIAAEQGHPYARYNLAYIQELEGAPPETLIPLYRPLAEEGLPEAQVRLMYLLYASRHFEEALEWAKTSAKNNNPHGQYLLAQYCRYGTPPDFETAHLLYRKSAAQGLPEAHWQLGLQYRFGQGTKVDTAQAVNHLRAAAQQGYIPAYTPLAELILPTAPDEAVHWFQQAAQENDPDAHAALADIYLQGKHLERNHKLALHHAEAAAAERHPEGLRILGDICRYGLGIAPDTEKARHYYRQAAEAGSLSAYQKLISDSALNHPDQYGGIKDSAIRRQRAERLYQKAQALHYGLQCAPEYAAALKLYTEAAELGHSKAQTNLGSMYYFGQGMTADYNEARKWFEKAAAKKDSMAFYNLACIHYSGHGVEPDKEKACRYLQEAINNGYGQKSVLQELLQQWQNAV	failed
MNNQYKLIEEFNNAEFDKSLKWFSPPKDWEVNSNKSKLIVKPDKETDFWQKTHYEFQVDNGHFLYYELNGDFRLITKVKSKPANRYDQAGLMVRFSKDTWLKTSVEYIPDDNSKLGVVVTKNGYSDWSSQEFFGDLNSLYYRITRRGNNYYVDYSLDGDLWKQIRMVYLFEEKDCMKVGIYACSPQGDGYEAEFEFIKIENIDDNTKVY	failed
MNNRDLLLGIFVMIIWGLNFSVIKLGVSEIDPLLLTALRFSFAVIPAVFFVKRPQVKWRYLMGYGLVFAIGVWGMGSWSIQAGLSAGMASVLLQMNVVISLLVGYFVLKETVAPIKVVGSVVAILGLALSVSVTDGSVTTLGLVFILIAALSWSITSILVKKAGTKEIFAFSIWGMLFAPLPLFALAFLRGGPEQLQTLNSLANGSVIFSVLFQAYPVTLFGYWVWNRLLVKYPLSTVAPLTFLVPIFGLLGSAIFYQEQIGLVKALACLLIIVGLIIGLIKTEKLKAYLHQPKSAKQVV	failed
MNNRELYGNIRDVYHLLQKNLDKAIEQYDISYVQFGVIQVLAKSGKVSMSKLIENMGCVPSNMTTMIQRMKRDGYVMTEKNPNDQRETLVYLTKKGEETKKQVDVQYSDFLKENCGCFTKEEEGILEDLLLKWKKHLN	not failed
MNNSFRNKIHEQSKENLSDDRHKKSDRTLIVFNRKTPLYFYFFEQVRYITGSIYILIETPSSRNLPIYSNICIPISSHPNTNYRPKKRKKNPPTVYLTTIILIMGLLSLEDTIKEKLKDRKNAHFMLVDGMSKLLTEKVKNCQSLDFQVSGVKWRLVIRLSRGRKDHLSFVLEITDEKCTGSTWDVKFNFKIGIVPQTGPDYCFVLVGHQNEKKRSQGLANFISHTDLKERFLVNDKAGFYAEISDVQPNFPVTRIPRTMGTAERFKLIEFSPKNSRFTWKITQFSSFDGEEHSSYEFTVGPRRWKLVMYPKGNGDGKGNSLSLYLFASDYVTNGPKGGTLAIYKLRVLDQLNRNHCETECRYWFPYNPVNQMDSLWGRPKFLPLEELHKSSRGFLVNDQIYIGVEISIVSTTEYL	failed
MNNTLLYVITVLIWGSTWIAINYQLGEVAAEVSIVYRFGLAALCMFAYCRFKKLPLKFSAKQHLQLSAFGLTLFGFNYYLLYNAQAHINSALTSIAFSTLMMINILNARVWFKTRISSRVYYGGALGLMGIVTLFWPQISNVHFGDSTLLGLGLCLIGVVFASTGNMISIKNQHDNMPVLPATAWGMMYGSLFMFVVALVQGQTFNFSYTFEYISSLLYLSIFGSVIAFGCYLTLLARIGAHKASYATIMFPAVAVVISSFFEGFIWDSYTFIGLSLMLAGNLVVLAKPGMLKRFNSTSLKQVSCSDAK	failed

Source: a protein production outcome set (Wang et al. 2014)
